Results from patent US20150174265A1 (MIT, published 2015).

B1: E6N2 (Fc fusion)
chain: VSDVPRDLEVVAATPTSLLISWFDYAVTYYRITYGETGGNSPVQEFTVPGWISTATISGLKPGVDYTITVYAVTDNSRWPFRSTPISINYRTEIDKPSQ

What was measured:
[1] = tested on: E6N2 (anti-EGFR Fn3 clone E6 - mouse IgG2a Fc - PKR dsRBD) C121V,C135V (Homo sapiens); experiment: flow
[2] = target: epidermal growth factor receptor (EGFR) on human cancer cell lines (human, UniProt P00533 25-1210)

| Molecule | Kd [1] [nM] | binding signal [1] [fold] | Kd [2] [nM] |
| --- | --- | --- | --- |
| AllStars Negative Control siRNA, Alexa 488 labeled | 3.5 | > 100 | – |
| B1 | – | – | ~2.1 |
